From US20240150785A1 come the findings set out here.

Common to all, as to assay: co-immunoprecipitation with bead-bound His-SUMO-BdRFS^Δ1-45 from crude leaf protein extract, LC-MS/MS
Common to all, as to details: scale: LFQ intensity

The target in assay [1] is NCED1 (Nine-cis Epoxycarotenoid Cleavage Dioxygenase 1) (Brachypodium distachyon).
The target of assay [2] is LPR2 (Low Phosphate Root 2; cupredoxin family) (Brachypodium distachyon).
The target in assay [3] is PLAT1 (Polycystin, Lipoxygenase, Alpha-toxin, and Triacylglycerol lipase 1) (Brachypodium distachyon).
In assay [4] the target is Abscisic acid-, Stress- and Ripening-induced 2 (BdASR2, Bd4g24650) (Brachypodium distachyon).
Assay [5] has as its target Phospholipase D α1 (BdPLD α1, Bd2g04480) (Brachypodium distachyon).

B1: His-SUMO-BdRFS^Δ1-45 (protein, not shown: small tags and cut ends; large carriers)
chain: RVRAAGSSHKPGGAVVRSTLVDNKKIASESFDGPRPARSEPASPISEPSSPSKVRFTAYYGGTGSDGGDDGVVEGVKKCAERDEDDFNGESETAVLRRTASMRMRSTIKAPLMAAPDWEEKEMALRKRGDLGWYRHLDMAVLDGSVVRLWTGEVTAAVQASPRERRRAGLELHLSV
With B1, the average LFQ intensity in eluate in assay [1] amounted to 1.48e+07; in assay [2], 2.53e+07; in assay [3], 2.25e+07; in assay [4], 5.19e+07; in assay [5] it was 9.17e+06.
